The values that follow come from patent US20240270846A1 (published 2024).

Changes are numbered by the printed parent chain. Where no end group is shown, it is not given here.

First the molecules themselves.
B1: DADU01_3#002 (antibody, human IgG1, V domains shown)
VH: QVQLVESGGGLVQPGRSLRLSCAASGFTFSNAWMHWVRQAPGKGLEWVAQIKDKQNLYNAYYAESVKGRFTISRDDSKNSIYLQMNSLKTEDTAVYYCHYVHYASASTVLPAFGVDAWGQGTTVTVSS
VL: DIVMTQSPLSLPVTPGEPASISCRSSQSLVHSNRNTYLHWYQQKPGQAPRLLIYKVSNRFSGVPDRFSGSGSGTDFTLKISRVEAEDVGVYYCGQGTQVPYTFGQGTKLEIK
notes: IgG: VH joined to human IgG1 CH1-Fc; also called dBBDu124
B2: DADU01_3#001 (antibody, human IgG1, V domains shown)
VH: QVQLVESGGGLVQPGRSLRLSCAASGFTFSIAWMHWVRQAPGKGLEWVAQIKDRVNAYEAYYAPSVKGRFTISRDDSKNSIYLQMNSLKTEDTAVYYCRYVHYASYYDLLGYGGVDAWGQGTTVTVSS
VL: B1 VL
notes: IgG: VH joined to human IgG1 CH1-Fc; also called dBBDu_126; dBBDu126
B3: DXDU01_3#051 (antibody, human IgG1, V domains shown)
VH: B1 VH with K54R, Q55G, N56Q, L57Q, E64P, T108S, A112G, F113Y
VL: B1 VL
notes: IgG: VH joined to human IgG1 CH1-Fc; also called dBBDu127
B4: DADU01_3#018 (antibody, human IgG1, V domains shown)
VH: B1 VH with K54R, Q55A, L57S, E64P, A104S, S105A, V109L, A112S
VL: B1 VL
notes: IgG: VH joined to human IgG1 CH1-Fc; also called dBBDu123
B5: DXDU01_3#019 (antibody, human IgG1, V domains shown)
VH: B2 VH with R54K, A57G, E59T, P64E, S105A, L109V
VL: B1 VL
notes: IgG: VH joined to human IgG1 CH1-Fc; also called dBBDu125
B6: DXDU01_3#072 (antibody, human IgG1, V domains shown)
VH: B1 VH with K54R, Q55S, N56Q, N59A, E64P, P111G, F113Y
VL: B1 VL
notes: IgG: VH joined to human IgG1 CH1-Fc; also called dBBDu122
B7: DXDU01_3#094 (antibody, human IgG1, V domains shown)
VH: B1 VH with Q55G, L57A, N59A, E64P, S107A, T108G, V109G, A112G
VL: B1 VL
notes: IgG: VH joined to human IgG1 CH1-Fc; also called dBBDu121
B8: anti-human CD137 antibody described in WO2005/035584A1 (abbreviated as B) (antibody, V domains shown)
VH: QVQLQQWGAGLLKPSETLSLTCAVYGGSFSGYYWSWIRQSPEKGLEWIGEINHGGYVTYNPSLESRVTISVDTSKNQFSLKLSSVTAADTAVYYCARDYGPGNYDWYFDLWGRGTLVTVSS
VL: EIVLTQSPATLSLSPGERATLSCRASQSVSSYLAWYQQKPGQAPRLLIYDASNRATGIPARFSGSGSGTDFTLTISSLEPEDFAVYYCQQRSNWPPALTFGGGTKVEIK
notes: Control antibody; also called control anti-CD137 antibody
B9: DADU01_3#001 (antibody, human IgG1, V domains shown)
VH: B2 VH
VL: DIVMTQSPLSLPVTPGEPASISCRSSQSLVHSNRNTYLHWYQQKPGQAPRLLIYKVSNRFSGVPDRFSGSGSGTDFTLKISRVEAEDVGVYYCGQGTQVPYTFGQGTKLEIKR
notes: also called dBBDu_126; dBBDu126
B10: DADU01_3#002 (antibody, human IgG1, V domains shown)
VH: B1 VH
VL: B9 VL
notes: also called dBBDu124
B11: DADU01_3#018 (antibody, human IgG1, V domains shown)
VH: B1 VH with K54R, Q55A, L57S, E64P, A104S, S105A, V109L, A112S
VL: B9 VL
notes: also called dBBDu123
B12: DXDU01_3#051 (antibody, human IgG1, V domains shown)
VH: B1 VH with K54R, Q55G, N56Q, L57Q, E64P, T108S, A112G, F113Y
VL: B9 VL
notes: also called dBBDu127
B13: DXDU01_3#094 (antibody, human IgG1, V domains shown)
VH: B1 VH with Q55G, L57A, N59A, E64P, S107A, T108G, V109G, A112G
VL: B9 VL
notes: also called dBBDu121
B14: DXDU01_3#019 (antibody, human IgG1, V domains shown)
VH: B2 VH with R54K, A57G, E59T, P64E, S105A, L109V
VL: B9 VL
notes: also called dBBDu125
B15: DXDU01_3#072 (antibody, human IgG1, V domains shown)
VH: B1 VH with K54R, Q55S, N56Q, N59A, E64P, P111G, F113Y
VL: B9 VL
notes: also called dBBDu122

The target in the first assay is T1, biotin-labeled human CD137 fused to human IgG1 Fc fragment (human, biotin-labeled).
T1 construct: also called human CD137-Fc; biotin-human CD137-Fc
Briefly: bead ELISA (chemiluminescence), purified IgG on biotin labeled human CD137-Fc on streptavidin beads. Background: An ELISA detects its analyte on a solid surface through an enzyme-linked reagent.
In turn, B1 registered an RLU of 39100 RLU.

B2 displayed an RLU of 95300 RLU.

B3 had an RLU of 38100 RLU.

For the molecule B4, the RLU was 32800 RLU.

B5 yielded an RLU of 77800 RLU.

B6 gave an RLU of 14100 RLU.

B7 displayed an RLU of 24200 RLU.

The target of the next assay is T1, biotin-labeled human CD137 fused to …. Nature of the assay: bead ELISA; RLU on human CD137-Fc divided by RLU on human Fc.
On to B1, for which the “S/N ratio human CD137-Fc/Fc” value stood at 20.3.

B2: the “S/N ratio human CD137-Fc/Fc” value was determined as 54.1.

B3: the “S/N ratio human CD137-Fc/Fc” value was determined as 13.1.

On to B4, for which the “S/N ratio human CD137-Fc/Fc” value was found to be 17.3.

As for B5, the “S/N ratio human CD137-Fc/Fc” value came to 23.8.

As for B6, the “S/N ratio human CD137-Fc/Fc” value worked out at 6.58.

B7: the “S/N ratio human CD137-Fc/Fc” value came to 10.2.

Another assay addresses T2, biotin-labeled human CD137 fused to human IgG1 Fc fragment (human CD137-Fc) (human, biotin-labeled).
T2 construct: also called biotin-human CD137-Fc
Briefly: competitive bead ELISA, biotin-human CD137-Fc on beads, 100 ng IgG, competitor free CD3 epsilon peptide 62.5 pmol.
As to B8, the “ELISA signal with Free CD3e 62.5 pmol” value stood at 183000.

On to B9, for which the “ELISA signal with Free CD3e 62.5 pmol” value was 15100.

In the case of B10, the “ELISA signal with Free CD3e 62.5 pmol” value was found to be 9970.

With B11, the “ELISA signal with Free CD3e 62.5 pmol” value was determined as 9020.

For B12, the “ELISA signal with Free CD3e 62.5 pmol” value was found to be 10800.

With B13, the “ELISA signal with Free CD3e 62.5 pmol” value came to 9660.

As for B14, the “ELISA signal with Free CD3e 62.5 pmol” value turned out to be 12800.

The target of the next assay is T3, biotin-labeled cynomolgus monkey CD137 fused to human IgG1 Fc fragment (cynomolgus monkey, UniProt Q07011 24-186 (human entry), limits assumed, biotin-labeled).
T3 construct: also called cyno CD137-Fc; not shown: human IgG1 Fc fragment
T3 chain: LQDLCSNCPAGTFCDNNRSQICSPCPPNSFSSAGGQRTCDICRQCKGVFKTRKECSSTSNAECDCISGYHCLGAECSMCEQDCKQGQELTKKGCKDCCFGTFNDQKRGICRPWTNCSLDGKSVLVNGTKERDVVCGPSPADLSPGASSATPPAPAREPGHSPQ
Nature of the assay: bead ELISA; RLU on cyno CD137-Fc divided by RLU on human Fc.
Regarding B1, the “S/N ratio cyno CD137-Fc/Fc” value worked out at 5.6.

Turning to B2, the “S/N ratio cyno CD137-Fc/Fc” value came out at 0.687.

Consider B3, for which the “S/N ratio cyno CD137-Fc/Fc” value was 3.73.

For B4, the “S/N ratio cyno CD137-Fc/Fc” value turned out to be 3.27.

B5: the “S/N ratio cyno CD137-Fc/Fc” value came to 1.56.

Consider B6, for which the “S/N ratio cyno CD137-Fc/Fc” value amounted to 1.56.

Regarding B7, the “S/N ratio cyno CD137-Fc/Fc” value came to 8.09.

For another assay, the target named is T4, biotin-labeled CD3 epsilon peptide antigen (human, also: biotin-labeled, position not given here).
T4 construct: Peptide of CD3 epsilon; also called CD3 peptide
T4 peptide: QDGNEEMGGITQTPY
Nature of the assay: bead ELISA, biotin-CD3 epsilon peptide on streptavidin beads, 100 ng IgG.
On to B9, for which the “RLU, CD3 peptide” value is 198000 RLU and the “S/N ratio CD3 peptide/non coating” value is 146.

B10: the “RLU, CD3 peptide” value came out at 174000 RLU and the “S/N ratio CD3 peptide/non coating” value is 156.

B15: the “RLU, CD3 peptide” value was 177000 RLU and the “S/N ratio CD3 peptide/non coating” value stood at 148.

For B11, the “RLU, CD3 peptide” value stood at 182000 RLU and the “S/N ratio CD3 peptide/non coating” value is 149.

For the molecule B12, the “RLU, CD3 peptide” value was 169000 RLU and the “S/N ratio CD3 peptide/non coating” value came to 145.

With B13, the “RLU, CD3 peptide” value was 165000 RLU and the “S/N ratio CD3 peptide/non coating” value amounted to 141.

For the molecule B14, the “RLU, CD3 peptide” value was 191000 RLU and the “S/N ratio CD3 peptide/non coating” value is 161.

A further assay concerns the target T2, biotin-labeled human CD137 fused to …. Briefly: competitive bead ELISA, biotin-human CD137-Fc on beads; free CD3e 62.5 pmol against free Fc 62.5 pmol.
B8 had a Signal decrease of 0.94%.

With B9, the Signal decrease amounted to 81.3%.

B10 gave a Signal decrease of 93.6%.

Take B11: the Signal decrease was determined as 92.3%.

The molecule B12 yielded a Signal decrease of 91.6%.

B13 came in with a Signal decrease of 91.1%.

With B14, the Signal decrease stood at 92.5%.

For a further assay the target is unchanged. Briefly: competitive bead ELISA, biotin-human CD137-Fc on beads, 100 ng IgG, control competitor free human Fc 62.5 pmol.
Consider B8, for which the “ELISA signal with Free Fc 62.5 pmol” value amounted to 184000.

Turning to B9, the “ELISA signal with Free Fc 62.5 pmol” value was found to be 81000.

Regarding B10, the “ELISA signal with Free Fc 62.5 pmol” value was 155000.

B11: the “ELISA signal with Free Fc 62.5 pmol” value worked out at 117000.

For B12, the “ELISA signal with Free Fc 62.5 pmol” value was 128000.

Take B13: the “ELISA signal with Free Fc 62.5 pmol” value was determined as 108000.

For B14, the “ELISA signal with Free Fc 62.5 pmol” value turned out to be 172000.

A further assay addresses T3, biotin-labeled cynomolgus monkey CD137 …. Nature of the assay: bead ELISA (chemiluminescence), purified IgG on biotin labeled cyno CD137-Fc on streptavidin beads.
Molecule B1 displayed an RLU of 10800 RLU.

Regarding B2, the RLU was determined as 1210 RLU.

In the case of B3, the RLU is 10900 RLU.

Molecule B4 came in with an RLU of 6200 RLU.

Turning to B5, the RLU worked out at 5090 RLU.

Molecule B6 returned an RLU of 3350 RLU.

On to B7, for which the RLU turned out to be 19100 RLU.
